Data from patent US10456446B2, “Use of human small leucine zipper protein in osteogenesis procedure” (Korea University Research and Business Foundation, priority 2013, dated 2019).

Tests used:
PPARγ2 and HDAC3 = target: T1, PPARγ2 and HDAC3 (Homo sapiens, UniProt P37231); experiment: GST pull-down, effect on interaction between PPARγ2 and HDAC3; format: binding; conditions: in the presence of ligand (10 nM RZD, 24 hours)
T1 construct: expressed in transfected cells; host or cells: 293T
T1 sequence (P37231 1-505): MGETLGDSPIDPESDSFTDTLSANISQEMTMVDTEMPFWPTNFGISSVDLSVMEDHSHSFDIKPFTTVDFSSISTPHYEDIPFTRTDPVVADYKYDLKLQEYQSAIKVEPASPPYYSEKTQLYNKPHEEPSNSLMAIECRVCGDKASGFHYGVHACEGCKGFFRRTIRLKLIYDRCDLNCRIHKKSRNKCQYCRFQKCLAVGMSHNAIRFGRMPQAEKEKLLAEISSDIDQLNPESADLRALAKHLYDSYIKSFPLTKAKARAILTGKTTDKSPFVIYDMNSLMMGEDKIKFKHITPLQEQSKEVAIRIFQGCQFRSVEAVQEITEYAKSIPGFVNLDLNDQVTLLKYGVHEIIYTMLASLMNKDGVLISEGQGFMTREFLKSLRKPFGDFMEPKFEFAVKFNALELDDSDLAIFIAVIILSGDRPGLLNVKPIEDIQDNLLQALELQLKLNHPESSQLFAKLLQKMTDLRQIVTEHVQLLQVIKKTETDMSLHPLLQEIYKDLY
Method: Therefore, in order to understand a regulation mechanism of sLZIP in the PPARγ2 transcriptional activity by binding to the FABP4 promoter region, an effect of sLZIP on the interaction between PPARγ2 and HDAC3 was examined. For this purpose, 293T cells were transfected with GST-HDAC3, Myc-PPARγ2 and Flag-sLZIP, and were treated or not treated with 10 nM of RZD for 24 hours. Cell lysates were subjected to GST pull-down analysis using a glutathione 4B bead, and a protein complex was analyzed in SDS-PAGE, and then immunoblotted with anti-GST, anti-Myc and anti-Flag antibodies (FIG. 6A). GST-HDAC3, GST-PPARγ2, Myc-PPARγ2, Flag-sLZIP and Ha-UB were expressed in the 293T cells, and the cells were treated with 10 nM of RZD for 24 hours. Cell lysates were subjected to GST pull-down analysis (FIG. 6B). GST-PPARγ2 and Flag-sLZIP were expressed in the 293T cells and treated with 10 nM of RZD for 24 hours. Cell lysates were subjected to GST pull-down analysis, and a protein complex was analyzed in SDS-PAGE, and then immunoblotted with anti-PGC1α, anti-GST and anti-Flag antibodies (FIG. 6C).

[1] = Solubility in saline or buffer solution; format: physicochemical
PPARγ2 = target: T2, PPARγ2 (Homo sapiens, UniProt P37231); experiment: Fluorescence microscopy, subcellular localization with PPARγ2 in C3H10T1/2 cells; format: cell-based; conditions: GFP-PPARγ2 and Flag-sLZIP in C3H10T1/2 cells
T2 construct: expressed in transfected cells; host or cells: 293T
T2 sequence (P37231 1-505): T1 sequence (P37231 1-505)
Method: C3H10T1/2 cells were transiently ci-transfected with Flag-sLZIP, GFP-PPARγ2 or GFP-sLZIP, and HDAC3 was grown on cover slip. After 24 hours, the cells were fixed with 4% paraformaldehyde for 10 minutes and permeabilized 0.2% Triton-X 100 for 5 minutes. The cells were incubated with 1% BSA for one hour, and then incubated with anti-Flag and anti-HDAC3 antibodies overnight at 4° C. The cells were washed with PBS, and then were incubated with Texas Red-labeled antibodies for 2 hours. A cover slide was washed with PBS, and mounted on and examined using a LSM 510 META confocal microscopy (Carl Zeiss, Jena, Germany).
In order to examine whether the transcriptional activity of PPARγ2 is regulated by interaction with sLZIP, interaction between sLZIP and PPARγ2 was examined. For this purpose, 293T cells were transfected with GST-sLZIP and Myc-PPARγ2. Cell lysates were obtained and GST pull-down analysis was performed using a glutathione 4B bead. A protein complex was analyzed in SDS-PAGE and then immunoblotted with specific antibodies (FIG. 2A). […] Proteins bound to the bead were analyzed in SDS-PAGE, and then immunoblotted with anti-PPARγ2 and anti-His antibodies (FIG. 2C). GFP-PPARγ2 and Flag-sLZIP constructs were expressed in C3H10T1/2 cells, and analyzed using mouse anti-Flag and Texas Red-labeled anti-mouse antibodies under a fluorescence microscope. […]

B1: sLZIP: human small leucine-zipper protein, isoform of LZIP, 354 amino acids, no transmembrane domain, GenBank FJ263669, SEQ ID NO: 1 (protein, listed as Homo sapiens)
chain: MELELDAGDQDLLAFLLEESGDLGTAPDEAVRAPLDWALPLSEVPSDWEVDDLLCSLLSPPASLNILSSSNPCLVHHDHTYSLPRETVSMDLESESCRKEGTQMTPQHMEELAEQEIARLVLTDEEKSLLEKEGLILPETLPLTKTEEQILKRVRRKIRNKRSAQESRRKKKVYVGGLESRVLKYTAQNMELQNKVQLLEEQNLSLLDQLRKLQAMVIEISNKTSSSSMYSSDTRGSLPAEHGVLSRQLRALPSEDPYQLELPALQSEVPKDSTHQWLDGSDCVLQAPGNTSCLLHYMPQAPSAEPPLEWPFPDLFSEPLCRGPILPLQANLTRKGGWLPTGSPSVILQDRYSG
PPARγ2 and HDAC3
  interaction between PPARγ2 and HDAC3: enhanced interaction between PPARγ2 and HDAC3
[1]
  solubility: very soluble
PPARγ2
  subcellular localization of sLZIP and PPARγ2: localized in the nucleus together with PPARγ2
